Assay results from US6639060.

Target: human erbB-3 protein, gp180^erbB-3 (human) (UniProt P21860)
Experiment: cell-based or functional assay

Sequence of UniProt P21860 (P21860 20-1342): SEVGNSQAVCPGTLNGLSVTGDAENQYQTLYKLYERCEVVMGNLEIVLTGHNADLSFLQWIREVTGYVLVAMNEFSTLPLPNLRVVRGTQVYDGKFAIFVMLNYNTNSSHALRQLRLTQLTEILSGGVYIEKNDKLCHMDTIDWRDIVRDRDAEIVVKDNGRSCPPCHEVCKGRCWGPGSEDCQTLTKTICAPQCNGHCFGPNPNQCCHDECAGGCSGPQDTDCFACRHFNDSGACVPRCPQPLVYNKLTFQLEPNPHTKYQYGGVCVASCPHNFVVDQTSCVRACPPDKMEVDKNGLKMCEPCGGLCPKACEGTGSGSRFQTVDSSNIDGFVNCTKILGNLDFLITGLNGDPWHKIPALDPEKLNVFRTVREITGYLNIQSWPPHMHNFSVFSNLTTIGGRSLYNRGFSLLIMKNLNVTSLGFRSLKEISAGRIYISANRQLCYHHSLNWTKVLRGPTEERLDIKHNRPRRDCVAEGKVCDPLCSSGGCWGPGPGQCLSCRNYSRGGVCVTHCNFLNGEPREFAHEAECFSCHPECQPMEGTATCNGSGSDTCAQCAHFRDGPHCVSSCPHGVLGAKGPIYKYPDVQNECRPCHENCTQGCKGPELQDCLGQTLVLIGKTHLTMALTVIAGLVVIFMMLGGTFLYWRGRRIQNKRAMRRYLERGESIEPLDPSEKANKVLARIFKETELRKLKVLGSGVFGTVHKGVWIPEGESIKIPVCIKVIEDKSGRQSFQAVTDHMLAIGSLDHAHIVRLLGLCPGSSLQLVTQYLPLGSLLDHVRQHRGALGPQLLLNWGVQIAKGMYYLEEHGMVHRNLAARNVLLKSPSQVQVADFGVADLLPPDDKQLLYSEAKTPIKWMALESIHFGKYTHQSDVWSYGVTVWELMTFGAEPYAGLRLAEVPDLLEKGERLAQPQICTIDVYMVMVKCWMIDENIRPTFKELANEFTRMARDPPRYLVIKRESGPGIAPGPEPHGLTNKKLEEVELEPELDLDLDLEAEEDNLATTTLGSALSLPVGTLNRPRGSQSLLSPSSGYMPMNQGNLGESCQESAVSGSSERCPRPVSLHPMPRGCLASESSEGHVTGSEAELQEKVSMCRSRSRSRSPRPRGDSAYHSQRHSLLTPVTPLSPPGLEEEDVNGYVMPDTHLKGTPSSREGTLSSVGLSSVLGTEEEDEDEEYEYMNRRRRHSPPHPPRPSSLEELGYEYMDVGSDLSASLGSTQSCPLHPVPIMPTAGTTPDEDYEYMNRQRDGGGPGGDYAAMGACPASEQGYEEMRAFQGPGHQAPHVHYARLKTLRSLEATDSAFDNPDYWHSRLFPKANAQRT

- soft agar colonies/10^4 cells, + EGF 20 ng/ml (- EGF: 97) (colonies/10^4 cells): 94
Substance: EGF (epidermal growth factor) (ligand)
